Measured values: IntAct's records for PubMed 17167421

B1: Synaptotagmin-2 (Rattus norvegicus (Rat)), P29101 (parent)
chain: MRNIFKRNQEPIVAPATTTATMPLAPAAPADNSTESTGTGESQEDMFAKLKDKFFNEINKIPLPPWALIAMAVVAGLLLLTCCFCICKKCCCKKKKNKKEKGKGMKNAMNMKDMKGGQDDDDAETGLTEGEGEGEEEKEPENLGKLQFSLDYDFQANQLTVGVLQAAELPALDMGGTSDPYVKVFLLPDKKKKYETKVHRKTLNPAFNETFTFKVPYQELGGKTLVMAIYDFDRFSKHDIIGEVKVPMNTVDLGQPIEEWRDLQGGEKEEPEKLGDICTSLRYVPTAGKLTVCILEAKNLKKMDVGGLSDPYVKIHLMQNGKRLKKKKTTVKKKTLNPYFNESFSFEIPFEQIQKVQVVVTVLDYDKLGKNEAIGKIFVGSNATGTELRHWSDMLANPRRPIAQWHSLKPEEEVDALLGKNK

Variants of: B1
Settings: with bxb_clobo botB

| Variant | effect of a mutation on the interaction |
| --- | --- |
| F54A | disrupting interaction strength |
| F55A | disrupting interaction strength |
| F47A | disrupting interaction strength |
| E57K | disrupting interaction strength |
| L50A | decreasing interaction strength |
